B1: CER117: Chimeric engulfment receptor: Tim4 binding, Tim4 transmembrane, TLR8 and TRAF6 signaling; SEQ ID NO: 153 (protein)
chain: MSKGLLLLWLVTELWWLYLTPAASEDTIIGFLGQPVTLPCHYLSWSQSRNSMCWGKGSCPNSKCNAELLRTDGTRIISRKSTKYTLLGKVQFGEVSLTISNTNRGDSGVYCCRIEVPGWFNDVKKNVRLELRRATTTKKPTTTTRPTTTPYVTTTTPELLPTTVMTTSVLPTTTPPQTLATTAFSTAVTTCPSTTPGSFSQETTKGSAFTTESETLPASNHSQRSMMTISTDIAVLRPTGSNPGILPSTSQLTTQKTTLTTSESLQKTTKSHQINSRQTILIIACCVGFVLMVLLFLAFLHHLFYWDVWFIYNVCLAKVKGYRSLSTSQTFYDAYISYDTKDASVTDWVINELRYHLEESRDKNVLLCLEERDWDPGLAIIDNLMQSINQSKKTVFVLTKKYAKSWNFKTAFYLALQRLMDENMDVIIFILLEPVLQHSQYLRLRQRICKSSILQWPDNPKAEGLFWQTLRNVVLTENDSRYNNMYVDSIKQYMSLLNCENSCGSSQSESDCCVAMASSCSAVTKDDSVGGTASTGNLSSSFMEEIQGYDVEFDPPLESKYECPICLMALREAVQTPCGHRFCKACIIKSIRDAGHKCPVDNEILLENQLFPDNFAKREILSLMVKCPNEGCLHKMELRHLEDHQAHCEFALMDCPQCQRPFQKFHINIHILKDCPRRQVSCDNCAASMAFEDKEIHDQNCPLANVICEYCNTILIREQMPNHYDLDCPTAPIPCTFSTFGCHEKMQRNHLARHLQENTQSHMRMLA
modifications: CER117, amino acids 1-22 are signal peptide
B2: CER116: Chimeric engulfment receptor: Tim4 binding, Tim4 transmembrane, TRAF6 and TLR8 signaling; SEQ ID NO: 152 (protein)
chain: MSKGLLLLWLVTELWWLYLTPAASEDTIIGFLGQPVTLPCHYLSWSQSRNSMCWGKGSCPNSKCNAELLRTDGTRIISRKSTKYTLLGKVQFGEVSLTISNTNRGDSGVYCCRIEVPGWFNDVKKNVRLELRRATTTKKPTTTTRPTTTPYVTTTTPELLPTTVMTTSVLPTTTPPQTLATTAFSTAVTTCPSTTPGSFSQETTKGSAFTTESETLPASNHSQRSMMTISTDIAVLRPTGSNPGILPSTSQLTTQKTTLTTSESLQKTTKSHQINSRQTILIIACCVGFVLMVLLFLAFLMSLLNCENSCGSSQSESDCCVAMASSCSAVTKDDSVGGTASTGNLSSSFMEEIQGYDVEFDPPLESKYECPICLMALREAVQTPCGHRFCKACIIKSIRDAGHKCPVDNEILLENQLFPDNFAKREILSLMVKCPNEGCLHKMELRHLEDHQAHCEFALMDCPQCQRPFQKFHINIHILKDCPRRQVSCDNCAASMAFEDKEIHDQNCPLANVICEYCNTILIREQMPNHYDLDCPTAPIPCTFSTFGCHEKMQRNHLARHLQENTQSHMRMLAHHLFYWDVWFIYNVCLAKVKGYRSLSTSQTFYDAYISYDTKDASVTDWVINELRYHLEESRDKNVLLCLEERDWDPGLAIIDNLMQSINQSKKTVFVLTKKYAKSWNFKTAFYLALQRLMDENMDVIIFILLEPVLQHSQYLRLRQRICKSSILQWPDNPKAEGLFWQTLRNVVLTENDSRYNNMYVDSIKQY
modifications: CER116, amino acids 1-22 are signal peptide
B3: CER104: Chimeric engulfment receptor: Tim4 binding, Tim4 transmembrane, TLR8 and DAP12 signaling; SEQ ID NO: 139 (protein)
chain: MSKGLLLLWLVTELWWLYLTPAASEDTIIGFLGQPVTLPCHYLSWSQSRNSMCWGKGSCPNSKCNAELLRTDGTRIISRKSTKYTLLGKVQFGEVSLTISNTNRGDSGVYCCRIEVPGWFNDVKKNVRLELRRATTTKKPTTTTRPTTTPYVTTTTPELLPTTVMTTSVLPTTTPPQTLATTAFSTAVTTCPSTTPGSFSQETTKGSAFTTESETLPASNHSQRSMMTISTDIAVLRPTGSNPGILPSTSQLTTQKTTLTTSESLQKTTKSHQINSRQTILIIACCVGFVLMVLLFLAFLHHLFYWDVWFIYNVCLAKVKGYRSLSTSQTFYDAYISYDTKDASVTDWVINELRYHLEESRDKNVLLCLEERDWDPGLAIIDNLMQSINQSKKTVFVLTKKYAKSWNFKTAFYLALQRLMDENMDVIIFILLEPVLQHSQYLRLRQRICKSSILQWPDNPKAEGLFWQTLRNVVLTENDSRYNNMYVDSIKQYYFLGRLVPRGRGAAEAATRKQRITETESPYQELQGQRSDVYSDLNTQRPYYK
modifications: CER104, amino acids 1-22 are signal peptide

Tests used:
SCC152 cells [1] = assay: Elimination of GFP-expressing SCC152 target cells over time (quantification and time lapse imaging); type: cell-based; conditions: for elimination of SCC152 cells, time lapse imaging: 0 to 36 hrs, compared to the control; for elimination of SCC152 cells (GFP quantification): by 36 hrs, 1:1:1 ratio (CD8:CD4:target cell), compared to control; for number of SCC152 cells in time lapse imaging: 96-well co-culture, CD8+/E7 TCR + CD4+/CER + SCC152 1:1:1, compared to control
How it was run: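 GFP-labelled SCC152 (HPV16+) target cells were co-cultured at 1:1:1 with CD8+ T cells carrying an HPV16 E7 TCR and with CD4+ T cells transduced with a chimeric CER or a control. Remaining target cells were counted by fluorescence imaging and automated software at 0, 12, 24, 36 h or 0, 24, 48 h.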

SCC152 cells [2] = assay: Magnitude breadth analysis of phagocytosis by CER type (pHrodo red / CELLTRACE violet microscopy); type: cell-based; conditions: 8 hours co-culture with SCC152, CD8+/E7 TCR 1:1
Method: Top image is an enlargement of a cell in the lower left image showing a SCC152 cell engulfed by CER126-transduced CD4+ T cell. […] White arrow indicates CD8+ T cell transduced with E7-specific TCR and that is pHrodo Red negative (lower left panel of FIG. 60B). Software rendition of phagocytosis (lower right panel of FIG. 60B).
Various CER-modified CD4+ T cells were also evaluated for breadth of response to determine whether a particular CER confers a broad phagocytic response of low magnitude (e.g., 10% engulfment in 90% of cells) or a less frequent but strong phagocytic response (e.g., 90% engulfment in 10% of cells) in the host cells. CD8+ T cells were transduced with HPV16 E7 specific TCR as described in Example 1. CD4+ T cells were transduced with lentiviral vectors comprising a CER21, CER27, CER104, CER116, or CER117 nucleic acid. Mock-transduced (vector alone) CD4+ T cell were used as control. CD4+/CER+ and CD8+/E7 TCR+ T cells were stained with CELLTRACE violet. HPV16 E7+ head and neck squamous cell carcinoma cells (SCC152) were stained with pHrodo red. HPV16 E7 TCR transduced CD8+ T cells and selected CER transduced CD4+ T cells were mixed at a 1:1 ratio and co-cultured with SCC152 cells at a 1:1 ratio for 8 hours. Phagocytosis of target SCC152 cells by CER-transduced CD4+ T cells was analyzed by fluorescence microscopy. […] The horizontal axis represents the % area of CER-transduced CD4+ T cells having engulfment or % area of the CER-transduced CD4+ T cells taken up by target SCC152 cells. This measure was rarely above 40% across CER types tested. The vertical axis represents the proportion of CER-transduced CD4+ T cells that were phagocytic. For CER104, about 20% of CER104-transduced CD4+ T cells have more than 10% engulfment. For CER117-transduced CD4+ T cells, less than 10% have more than 10% engulfment.

| Molecule | elimination of SCC152 cells, time lapse imaging (SCC152 cells [1]) | elimination of SCC152 cells (GFP quantification) (SCC152 cells [1]) | proportion of CER-transduced CD4+ T cells having more than 10% engulfment (SCC152 cells [2]) | number of SCC152 cells in time lapse imaging (SCC152 cells [1]) |
| --- | --- | --- | --- | --- |
| B1 | enhanced elimination of SCC152 cells | nearly complete elimination | less than 10% |  |
| B2 | enhanced elimination of SCC152 cells | nearly complete elimination |  | decreasing in numbers over time |
| B3 |  |  | about 20% | decreasing in numbers over time |
